Experimental data published in patent publication US20180072804A1 (Hoffmann-La Roche, published 2018).

Tests used:
[1] = target: T1, human TIM3, full length, on cells (human, UniProt Q8TDQ0 22-301); assay: FACS, human CD14+ monocytes, donor1, isotype control
[2] = target: T1, human TIM3, full length, on cells; assay: FACS, human CD14+ monocytes, donor2, isotype control
[3] = target: cynomolgus TIM-3 on isolated cyno CD14+ monocytes (cynomolgus monkey); assay: FACS, cyno CD14+ monocytes, cyno2 (17435M), isotype control
[4] = target: cynomolgus TIM-3 on isolated cyno CD14+ monocytes (cynomolgus monkey); assay: FACS, cyno CD14+ monocytes, cyno3 (30085F), isotype control
[5] = target: cynomolgus TIM-3 on isolated cyno CD14+ monocytes (cynomolgus monkey); assay: FACS, cyno CD14+ monocytes, cyno1 (16719M), isotype control
[6] = target: T1, human TIM3, full length, on cells; assay: FACS, human CD14+ monocytes, donor3, isotype control
[7] = target: T1, human TIM3, full length, on cells; assay: FACS, human CD14+ monocytes, donor1, 10 µg/ml
[8] = target: T1, human TIM3, full length, on cells; assay: FACS competition, RPMI-8226 cells; competitor Tim3_0038
[9] = target: T1, human TIM3, full length, on cells; assay: FACS competition, RPMI-8226 cells; competitor Tim3_0026
[10] = target: cynomolgus TIM-3 on isolated cyno CD14+ monocytes (cynomolgus monkey); assay: FACS, cyno CD14+ monocytes, cyno1 (16719M)
[11] = target: T1, human TIM3, full length, on cells; assay: FACS competition, RPMI-8226 cells; competitor Tim3_0028
[12] = target: T1, human TIM3, full length, on cells; assay: FACS competition, RPMI-8226 cells; competitor Tim3_0018
[13] = target: T1, human TIM3, full length, on cells; assay: FACS, human CD14+ monocytes, donor3, 10 µg/ml
[14] = target: cynomolgus TIM-3 on isolated cyno CD14+ monocytes (cynomolgus monkey); assay: FACS, cyno CD14+ monocytes, cyno2 (17435M)
[15] = target: T1, human TIM3, full length, on cells; assay: FACS competition, RPMI-8226 cells; competitor Tim3_0022
[16] = target: T1, human TIM3, full length, on cells; assay: FACS competition, RPMI-8226 cells; competitor Tim3_0016
[17] = target: T1, human TIM3, full length, on cells; assay: FACS, human CD14+ monocytes, donor2, 10 µg/ml
[18] = target: cynomolgus TIM-3 on isolated cyno CD14+ monocytes (cynomolgus monkey); assay: FACS, cyno CD14+ monocytes, cyno3 (30085F)
[19] = target: T1, human TIM3, full length, on cells; assay: cell-based or functional assay
[20] = target: T2, cynomolgus TIM-3 on isolated cyno CD14+ monocytes (cynomolgus monkey, UniProt A0A2K5U3G7 22-294); assay: FACS, cyno CD14+ monocytes, cyno2 (17435M)
T2 construct: whole, on cells; also called cyno monocytes expressing TIM-3
T2 sequence: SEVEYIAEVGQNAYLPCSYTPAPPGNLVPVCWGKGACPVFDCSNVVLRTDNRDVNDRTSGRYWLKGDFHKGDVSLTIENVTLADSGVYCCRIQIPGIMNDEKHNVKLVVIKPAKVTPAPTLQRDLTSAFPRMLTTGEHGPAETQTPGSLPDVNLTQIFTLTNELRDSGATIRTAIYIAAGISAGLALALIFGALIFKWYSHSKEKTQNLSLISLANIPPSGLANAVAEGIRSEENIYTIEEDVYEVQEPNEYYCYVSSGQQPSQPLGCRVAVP
Description: (§1) CD14+ Monocytes were isolated from cynomolgus monkey anticoagulated peripheral blood (Covance) by density gradient centrifugation using Ficoll-Paque (GE Healthcare) (see General Protocols in the User Manuals or visit www.miltenyibiotec.com/protocols) and subsequent positive selection via NHP CD14 MicroBeads. First the CD14+ cells are magnetically labeled with CD14 MicroBeads. Then the cell suspension is loaded onto a MACS® Column which is placed in the magnetic field of a MACS Separator. The magnetically labeled CD14+ cells are retained in the column. The unlabeled cells run through, this cell fraction is depleted of CD14+ cells. After removal of the column from the magnetic field, the magnetically retained CD14+ cells can be eluted as the positively selected cell fraction. After centrifugation at 200×g for 10 min at room temperature the monocytes were harvested and used directly in binding assay or resuspended in freezing medium (10% DMSO, 90% FCS) at 1.0E+07 cells/ml and stored in liquid nitrogen.
(§2) After washing and centrifugation MFI signals of stained cells were analyzed by BD Biosciences FACSCanto flow cytometer.

[21] = target: T3, monomeric human Tim3-ECD (human, UniProt Q8TDQ0 22-202); assay: SPR, Ab captured on anti-mouse IgG, monomeric Tim3-ECD
T3 construct: also called huTim3; hu Tim3-ECD

[22] = target: T1, human TIM3, full length, on cells; assay: cell-based or functional assay; remark: listed apart in the source
[23] = target: T2, cynomolgus TIM-3 on isolated cyno CD14+ …; assay: FACS, cyno CD14+ monocytes, cyno3 (30085F)
Description: as §1, §2

[24] = target: T1, human TIM3, full length, on cells; assay: cell-based or functional assay; remark: listed apart in the source
[25] = target: T4, Tim3-ECD-His-Biotin (human, UniProt Q8TDQ0 22-202, biotinylated with BirA Ligase); assay: ELISA on Tim3-ECD-His-Biotin
T4 construct: Coated on streptavidin plates; also called human Tim3 (ELISA); Biochem Human
Protocol: After washing (3×90 μl/well with PBST-buffer) 25 μl/well sheep-anti-mouse-POD (GE NA9310V) was added in 1:9000 dilution and incubated at RT for 1 h while shaking at 400 rpm rotation. After washing (4×90 μl/well with PBST-buffer) 25 TMB substrate (Calbiochem, #CL07) was added and incubated until OD 1.5-2.5. Then the reaction was stopped by addition of 25 μl/well 1N HCL-solution.

[26] = target: T2, cynomolgus TIM-3 on isolated cyno CD14+ …; assay: FACS, cyno CD14+ monocytes, cyno1 (16719M)
Description: as §1, §2

[27] = target: T5, Fc-tagged human Tim3-ECD dimer (human, UniProt Q8TDQ0 22-202); assay: SPR, Ab captured on anti-mouse IgG, dimeric Tim3-ECD-Fc
T5 construct: also called huTim3Fc; huFc fused dimeric human Tim3-ECD
Protocol: Therefore, an anti-mouse IgG was immobilized by amine coupling to the surface of a (BIAcore) CMS sensor chip. […] The sensor chip surface was regenerated after each analysis cycle. The equilibrium constant KD was finally gained by fitting the data to a 1:1 Langmuir interaction model.
The samples were injected for 30 seconds with a concentration of 200 μg/ml and bound to the spots 1 and 5 of each flow cell, allowing the measurement of eight samples in parallel. […] The flow rate was set to 30 μl/min for the whole run.
Finally the double referenced data was fitted to a 1:1 Langmuir interaction model with the BIAcore B4000 Evaluation Software.

[28] = target: T1, human TIM3, full length, on cells; assay: cell ELISA, CHO-K1 with full-length human Tim3
Protocol: Then the reaction was stopped by addition of 25 μl/well 1N HCL-solution.

[29] = target: T5, Fc-tagged human Tim3-ECD dimer; assay: SPR, Ab captured on anti-mouse IgG, 25 C
[30] = target: T3, monomeric human Tim3-ECD; assay: SPR, Ab captured on anti-mouse IgG, 25 C
[31] = target: T1, human TIM3, full length, on cells; assay: cell-based or functional assay; remark: listed apart in the source

Molecule | Specific Binding [MFI] [7] [MFI] | Specific Binding [MFI] [13] [MFI] | Specific Binding [MFI] [17] [MFI] | Specific Binding [MFI] [20] [MFI] | IFNgamma release in MLR, % of rec hu IL-2 control, 1 µg/ml [22] [%] | IFNgamma release in MLR, % of rec hu IL-2 control, 10 µg/ml [22] [%] | IFNgamma release in MLR, % of rec hu IL-2 control, 40 µg/ml [22] [%] | Specific Binding [MFI] [23] [MFI] | Specific Binding [MFI] [26] [MFI] | Kd [29] [nM] | Kd [30] [nM] | also measured
M-IgG1 isotype control (antibody) | – | – | – | – | – | – | – | – | – | – | – | Specific Binding [MFI] [1]: 144 MFI; Specific Binding [MFI] [2]: 55 MFI; Specific Binding [MFI] [3]: 82 MFI; Specific Binding [MFI] [4]: 83 MFI; Specific Binding [MFI] [5]: 72 MFI; Specific Binding [MFI] [6]: 213 MFI
anti-human TIM-3 rat monoclonal antibody clone 344823 (R&D Systems) | 1010 | 814 | 917 | – | – | – | – | – | – | – | – | Max % Inhibition of Binding [8]: 99%; Max % Inhibition of Binding [9]: 3%; Specific Binding [MFI] [10]: 158 MFI; Max % Inhibition of Binding [11]: 107%; Max % Inhibition of Binding [12]: 0%; Specific Binding [MFI] [14]: 121 MFI; Max % Inhibition of Binding [15]: 102%; Max % Inhibition of Binding [16]: 0%; Specific Binding [MFI] [18]: 143 MFI
Fab-PE24 construct of anti-TIM3 antibody Tim3_0033 (Fab, V domains shown) VH: QGQMHQSGAELVKPGSSVKLSCKTSGFTFSSSFISWLKQKPGQSLEWIAWIYAATGSTSYNQKFTNKAQLTVDTSSSAAYMQFSSLTTEDSAIYYCARHAGYPHYYAMDYWGQGTSVTVSS VL: DIQMTQSPASLSASVGETVTITCRASENIFSNLAWYQQKQGKSPQLLVYSATNLGDGVPSRFSGSGSGTQFSLKINSLQPEDFGNYYCQHFYKIPFTFGTGTKLEIK | – | – | – | – | – | – | – | – | – | – | – | Max. killing, Pfeiffer cells [19]: 99.8%; Max. killing, RPMI-8226 cells [19]: 99.7%
anti-TIM3 antibody Tim3_0026 (antibody, V domains shown, Mouse monoclonal from hybridoma) VH: QIQLVQSGPELKKPGETVKISCKASGYTFTDYSMHWVKQAPGRGLKWMGYINTETYEPTFGADFKGRFAFSLDTSATTAYLQINSLKTEDTATFFCGGGGYPAYWGQGTVVIVSA VL: DVLMTQTPLSLPVSLGDQASISCRSSRTILHSSGNTYLEWYLQKPGQSPKLLIYKVSNRFSGVPDRFSGSGSGTDFTLNISRVEAEDLGVYYCFQDSHVPFTFGTGTKLEIK | 1660 | 900 | – | 184 | 18 | 16 | 25 | 197 | 137 | 1.52 | 6.23 | Kd [21]: 6.2 nM; cytotoxicity IC50, RPMI-8226, with <mFc> Fab PE24 [24]: > 64 nM; EC50 [25]: 0.047 µg/mL; Kd [27]: 1.5 nM; EC50 [28]: 0.069 µg/mL
anti-TIM3 antibody Tim3_0030 (antibody, V domains shown, Mouse monoclonal from hybridoma) VH: QIQLVQSGPELKKPGETVKISCKASGYPFSEYSIHWVKQAPGKGLKWMVYVNTETGQPIVGDDFRGRFVLSLETSASTAYLQINNLKNEDTATYFCGGGGYPAYWGQGTLVTVSA VL: DVLMTQTPLSLPVSLGDQASISCRSSRSIVHSSGNTYLEWYLQKPGQSPKLLIYKVSNRFSGVPDRFSGSGSGTDFTLNISRVEAEDLGVYYCFQDSHVPFTFGTGTKLEIK | 1410 | 466 | 419 | 163 | 3 | 4 | 14 | 144 | 119 | 1.28 | 3.11 | cytotoxicity IC50, RPMI-8226, with <mFc> Fab PE24 [24]: > 64 nM
Tim3_0026, full length human IgG1 format (antibody, V domains shown) VH: QIQLVQSGPELKKPGETVKISCKASGYTFTDYSMHWVKQAPGRGLKWMGYINTETYEPTFGADFKGRFAFSLDTSATTAYLQINSLKTEDTATFFCGGGGYPAYWGQGTVVIVSA VL: DVLMTQTPLSLPVSLGDQASISCRSSRTILHSSGNTYLEWYLQKPGQSPKLLIYKVSNRFSGVPDRFSGSGSGTDFTLNISRVEAEDLGVYYCFQDSHVPFTFGTGTKLEIK | – | – | – | – | – | – | – | – | – | – | – | Max. killing, Pfeiffer cells, with anti-human Fc Fab PE24 [31]: 78.3%; Max. killing, RPMI-8226 cells, with anti-human Fc Fab PE24 [31]: 83.1%; Rel. IC50, Pfeiffer cells, with anti-human Fc Fab PE24 [31]: < 0.02 nM
anti-TIM3 antibody Tim3_0038 (antibody, V domains shown, Mouse monoclonal from hybridoma) VH: EVQLQQSGAEPLKPGASVKLTCTTSGFNIKDYYIHWVKQRSDQGLEWIGRIDPEDGELIYAPKFQDKATITVDTSSNIAYLQLNSLTSEDTAVYYCSRDHGYVGWFAYWGQGTLVTVSA VL: NVVMTQSPKSMIMSVGQRVTLNCKASENVDTYVSWYQQKPEQSPKLLIYGASNRYTGVPDRFTGSRSATDFTLTISSVQAEDLAVYYCGQSYSYPWTFGGGTKLEFR | 1640 | 1400 | 1370 | 107 | 1 | 38 | 51 | 120 | 97 | 0.569 | 7.56 | Kd [21]: 7.6 nM; cytotoxicity IC50, Pfeiffer cells, with <mFc> Fab PE24 [24]: < 0.002 nM; EC50 [25]: 0.083 µg/mL; Kd [27]: 0.6 nM; EC50 [28]: 0.029 µg/mL
Fab-PE24 construct of anti-TIM3 antibody Tim3_0021 (Fab, V domains shown) VH: QVQLQQSGPQLVRPGASVQISCKASGYSFTSYLLHWLKQRPGQGLEWIGMIDPSDSETRLNQKFKDKATLTVDKSSSTAYMQLSSPTSEDSAVYYCARDGYYAWYYFDCWGQGTTLTVSS VL: DIVLTQSPATLSVTPGDRVSLSCRASQSIGNNLHWYQQKSHESPRLLIKYASHSISGIPSKFSGTGSGTDFTLSFNSVETEDFGMYFCQQSNSWPLTFGAGTKLELK | – | – | – | – | – | – | – | – | – | – | – | Max. killing, Pfeiffer cells [19]: 98.4%
